Assay results taken from the RNAGym collection of RNA variant scans (doi:10.1073/pnas.2313332121).
Fewer inactive variants are shown than the library holds.

B1: TPR 5TU (parent)
chain: GGAUCUUCUCGAUCUAACAAAAAAGACAAAUCUGCCACAAAGCUUGAGAGCAUCUUCGGAUGCAGAGGCGGCAGCCUUCGGUGGCGCGAUAGCGCCAACGUUCUCAACUAUGACACGCAAAACGCGUGCUCCGUUGAAUGGAGUUUAUCAUG

Variants of: B1
Assay: polymerase ribozyme fitness, log enrichment relative to wild type (log ratio); higher = more active; in vitro selection for triplet polymerase activity
In short: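 After PCR construction and transcription, each subunit's mutant library from a heterodimeric triplet polymerase ribozyme was annealed with a biotinylated primer, the partner subunit and triplets. Incubation was frozen, at −7 °C, and extended constructs were gel-excised, bound to streptavidin beads and amplified by RT-PCR, in one selection round done in triplicate. Fitness is the logarithm of a genotype's enrichment divided by that of the wild type, from inverse-variance-weighted replicate averages of Illumina-sequenced inputs and outputs. The base of the logarithm is 2, and genotypes needed ≥10 input reads and ≥1 read per output.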

| Variant | polymerase ribozyme fitness (log ratio) |
| --- | --- |
| A17G G58C U61G G71U G86C U104G G143C | ≤ -4.2 |
| A17G G58C C72U G152A | -2.87 |
| A17U G59U C93U C114G | -3 |
| A17U G83U | -1.65 |
| A17U G58U G74C G86A | ≤ -4.2 |
| A17G U53A C75G A91G A113G G143A | ≤ -4.2 |
| A17U A110U | ≤ -4.2 |
| A17U A29C C43G G86A U135C | -4.06 |
| A17G G62U G68U C96A C105G U134G | ≤ -4.2 |
| A17U U56C G74U C76U G84U C125G A138C | ≤ -4.2 |
| C18A A20U C27G A30U U56G A64U G84U U102C G112U G124C | ≤ -4.2 |
| A17U A39C A60C G86C C87A | ≤ -4.2 |
| A17U G71A C87G G140U | ≤ -4.2 |
| A17G U53A C79A G141C | ≤ -4.2 |
| A17G G62C G81A | -1.76 |
| A17U A39G G50C A52C C96U C118U | ≤ -4.2 |
| A17U C87U C125U | -1.39 |
| A17U C54A G92U C149U | -2.92 |
| A17U U31G C32A A150G | ≤ -4.2 |
| C18A A19U C76A C85U C99U U104G A110G G143C | ≤ -4.2 |
| A17U G83A G86U A142C | ≤ -4.2 |
| A17G G59U G80A C85A | -0.447 |
| A17U A19C C38A G42C U56A U78G A113U C132G A142G U148A | ≤ -4.2 |
| A17U C32G C57A U139A | ≤ -4.2 |

| Variant | polymerase ribozyme fitness (log ratio) |
| --- | --- |
| A17U C38A U53A G81C C95U U104G | -4 |
| A17U A24U C36A G59A U77G G83A A98U C105U C116G | ≤ -4.2 |
| A17U A52U C57U C96U A98U C103G A121C G140C | ≤ -4.2 |
| A17G G58A | 1.26 |
| C18A A20C U82C A122C | -1.71 |
| A17G G59A G143C | -1.26 |
| A17U G48C G50U C76A C93A | ≤ -4.2 |
| A17U A22U C51U U55A C75A C85U U101A C114U A115G G124A | ≤ -4.2 |
| A17G G70A C75G C96U C99G | -4.15 |
| A17U C54A U90G C96A C118G | ≤ -4.2 |
| A17U G50C G68C C85G G94A A106U C123U U134A U135A | ≤ -4.2 |
| A17U C93A G94U A121U A150G | ≤ -4.2 |
| A17U A20C C57U A60U C93A G94U A122C G126U | ≤ -4.2 |
| A17U U101A U139G A142U | -3.82 |
| A17U A41U G86U A113C | ≤ -4.2 |
| A17G U33G C79G G84A U134G | ≤ -4.2 |
| A17U C36A C54U G74C A120U U144A | ≤ -4.2 |
| A17G G70A C85G | ≤ -4.2 |
| A17U C18U A20G C93U A115G | -4.19 |
| A17U G83A C96U C125U C129U | -1.96 |
| A17U U33G G34C A47G | ≤ -4.2 |
| A17U A52C A64C G133A A138C | ≤ -4.2 |
| A17U A19C C87G A89U | ≤ -4.2 |
| A17U G92U U101G U127G U148A | -4.01 |

| Variant | polymerase ribozyme fitness (log ratio) |
| --- | --- |
| A17U C87U G94C | -3.01 |
| A17U A21G A22C C38U A66U U82C G100A C125U | ≤ -4.2 |
| A17U C54A | -1.45 |
| A17G G92A A120G A122G C125A | ≤ -4.2 |
| A17U A19G C36U G42C G50A A73U A147C | ≤ -4.2 |
| A17U G84U | -1.75 |
| A17G G84A C93A A98G C129G | ≤ -4.2 |
| A17G G83U U134A | -2.39 |
| A17U G58C C95U C99A | -1.96 |
| A17U A20C C85U U102G C116G | -3.83 |
| A17U C79U C85U A97U | ≤ -4.2 |
| A17U C36G U61A C76G C103U A119U G141C | ≤ -4.2 |
| A17G G58A C93U U101G U139A | ≤ -4.2 |
| A17U G81A G84A | -0.321 |
| A17U G67C A91C C95U G100U A106U | ≤ -4.2 |
| A17U A22U A26G G34U C57U G59A C93U | ≤ -4.2 |
| A17U U31G G50C U78G U90G C96G | ≤ -4.2 |
| A17U A24C A26G C57U G86A | ≤ -4.2 |
| A17U A40C G58C C76U G84U U144G | -0.372 |
| A17U A98G | -0.0344 |
| A17U U53C G92A C129G | ≤ -4.2 |
| A17G G84C | -1.85 |
| A17U A20U G50C | ≤ -4.2 |
| A17U G94C C132U | -1.54 |

| Variant | polymerase ribozyme fitness (log ratio) |
| --- | --- |
| A17U G124U | -0.693 |
| A17U C95U | -0.895 |
| A17U A30U G42A C95A A138G | ≤ -4.2 |
| A17U A19U C93G U111G | ≤ -4.2 |
| A17G G83U A107U U135C | ≤ -4.2 |
| A17U A40C C43G A52G G92C G128C | ≤ -4.2 |
| A17U A49G C85U C116A | -0.0919 |
| C18A A19G C57A C87U C129A U135G | ≤ -4.2 |
| A17U U55A | -1.08 |
| A17U C87U C96U U104C A107U G141U | ≤ -4.2 |
| A17U A37G U82A U144A | -2.56 |
| A17U G65C A89U C93G G112C | ≤ -4.2 |
| A17U A41C G94C | -1.13 |
| A17U A30G G42U G81C C85U A122U | ≤ -4.2 |
| A17U C129G | -2.62 |
| A17U A28C C87A | ≤ -4.2 |
| A17U A73U C93U A120G | -1.86 |
| A17U C87U | -1.75 |
| A17U C36G G67U C87G C95G C99A C103A | ≤ -4.2 |
| A17G U53C A73G U139A A142U U146G | ≤ -4.2 |
| A17U C27G G58C C96A C116U | ≤ -4.2 |
| A17G G141C | 0.607 |
| A17G U53A | -0.401 |
| A17U A22U U90G C125A U139C | ≤ -4.2 |

| Variant | polymerase ribozyme fitness (log ratio) |
| --- | --- |
| A17G G143U | -2.24 |
| A17U C93U | -1.07 |
| A17U G58A C76U C87A A120G G133U | ≤ -4.2 |
| A17G U44A A91G | ≤ -4.2 |
| A17U C32U G128U | ≤ -4.2 |
| A17U A19G A22U C93A | -4.01 |
| A17U G42A A91C A122U G136C | ≤ -4.2 |
| A17U A47C C51G U61A G83A | ≤ -4.2 |
| A17U C76U C96U | 0.123 |
| A17U U101G | 0.484 |
| A17U G100U U134A U145G | ≤ -4.2 |
| A17U A60U | -0.153 |
| A17U C35A C69G U78G G84A A91G C103A | ≤ -4.2 |
| A17G G133U | -3.47 |
| A17U A20U A37U G48U C96A U101C | ≤ -4.2 |
| A17U G92A | -2.84 |
| A17U A19C G42U U56C C76A G88A | ≤ -4.2 |
| A17U G42U C99A C105U A120U | ≤ -4.2 |
| A17U C35A A47U A66C A73U G86A A91C U109G | ≤ -4.2 |
| A17U G59C G86C A113U | ≤ -4.2 |
| A17G G84U G126A | -1.39 |
| A17U G50A | -2.57 |
| C18A A20U C69A G88U C93G C99G U111A G124A G140C | ≤ -4.2 |
| A17U C95U C99A A107G G133U | ≤ -4.2 |

| Variant | polymerase ribozyme fitness (log ratio) |
| --- | --- |
| A17U A26C G62A G86U C99U U134C A137U G140A A147U | ≤ -4.2 |
| A17U A21U C43U G71A C75U C93A C114U A120U U151G | ≤ -4.2 |
| A17U G84A C123G | -0.525 |
| A17U A49U C85A A97U | ≤ -4.2 |
| A17G U56A G62C G152A | -3.06 |
| A17U A22C A23G G25A G50C U55A C75A G80A C87U U90C C103A | ≤ -4.2 |
| A17U C18U C96G C125U | -1.1 |
| A17U U53G C99A C125G G141U U146C | ≤ -4.2 |
| A17U U55G G68U G84A C103A G152A | ≤ -4.2 |
| A17U C32A A37U A41U | ≤ -4.2 |
| A17U U146C | -0.884 |
| A17G G100U | -4.01 |
| A17U C85G | -2.57 |
| A17U G25C | -4.13 |
| A17U A29U A37C C75U G80U G92A C125U A142C | ≤ -4.2 |
| A17G G86U A97U | -2.08 |
| C18A A19C G50U C75U A110U | ≤ -4.2 |
| A17U G100A A120C A150U | ≤ -4.2 |
| A17U C114U | -1.91 |
| A17U C87A A98G C132U G136A | ≤ -4.2 |
| A17G G86A | -0.889 |
| A17U C18A C54U U55G C75U C95A | -1.89 |
| A17U U31C G50A A64U C69A C99U | ≤ -4.2 |
| A17U U44A C54G U55G G62C C87A C99U A150G G152C | ≤ -4.2 |

| Variant | polymerase ribozyme fitness (log ratio) |
| --- | --- |
| A17U G42A G81C G86U G92C G143C | ≤ -4.2 |
| A17U C57G | -0.677 |
| A17U C38A U53A G74A C95U | ≤ -4.2 |
| A17G G59A C85U G92C C103A A122U | ≤ -4.2 |
| A17U A26C G62U U78G G100A G152U | ≤ -4.2 |
| A17U U104A A106U G141C | ≤ -4.2 |
| A17U C57G C69A | -2.58 |
| A17U U56G C125G | -1.81 |
| A17U A24U A39G C63G | -4.15 |
| A17U C85A C96G | -2.34 |
| A17U U33A C36A C76A G94A G117U C129U | ≤ -4.2 |
| A17U C57U G136A | 0.435 |
| A17U C18A C35U C36G C105A | ≤ -4.2 |
| A17U A28U C38U | ≤ -4.2 |
| A17U A30C C38U U53G G58U C99U C132U | ≤ -4.2 |
| A17U A26C C76A G86A C96A C105G A115G | ≤ -4.2 |
| A17G G58A G59C C69U C95U U104A | -3.74 |
| C18A A19C C35A | -2.88 |
| A17U A19G A30G C38G U45A G88U | ≤ -4.2 |
| A17U G50U C63U C93U C103U G126A C132U | -3.74 |
| A17U A26U U45A A64G C85G A138G G143U | ≤ -4.2 |
| A17U A29C A66C C95A C132G | ≤ -4.2 |
| A17U C18G A41G A89C G126A C132U | -3.84 |
